The supplement of paper PMC11246515
± gives the standard deviation of the averaged measurements.

Experiment: total protein half-life in vivo (active degradation + dilution); higher = more stable protein
[1] = E. coli NCM3722 delta-clpP delta-lon delta-hslV, growth: N-lim chemostat, doubling time 6 h
[2] = E. coli NCM3722 delta-clpP, growth: N-lim chemostat, doubling time 6 h
[3] = E. coli NCM3722 delta-hslV, growth: N-lim chemostat, doubling time 6 h
[4] = E. coli NCM3722 delta-lon, growth: N-lim chemostat, doubling time 6 h
[5] = E. coli NCM3722 delta-smpB, growth: N-lim chemostat, doubling time 6 h
[6] = wild type E. coli NCM3722, growth: C-lim chemostat, doubling time 3 h
[7] = wild type E. coli NCM3722, growth: C-lim chemostat, doubling time 6 h
[8] = wild type E. coli NCM3722, growth: C-lim chemostat, doubling time 12 h
[9] = wild type E. coli NCM3722, growth: N-lim chemostat, doubling time 6 h
[10] = wild type E. coli NCM3722, growth: N-lim chemostat, doubling time 12 h
[11] = wild type E. coli NCM3722, growth: P-lim chemostat, doubling time 6 h
[12] = wild type E. coli NCM3722, growth: P-lim chemostat, doubling time 12 h

Sequence: MDQAGIIRDLLIWLEGHLDQPLSLDNVAAKAGYSKWHLQRMFKDVTGHAIGAYIRARRLSKSAVALRLTARPILDIALQYRFDSQQTFTRAFKKQFAQTPALYRRSPEWSAFGIRPPLRLGEFTMPEHKFVTLEDTPLIGVTQSYSCSLEQISDFRHEMRYQFWHDFLGNAPTIPPVLYGLNETRPSQDKDDEQEVFYTTALAQDQADGYVLTGHPVMLQGGEYVMFTYEGLGTGVQEFILTVYGTCMPMLNLTRRKGQDIERYYPAEDAKAGDRPINLRCELLIPIRR [P0ACI0]
- total protein half-life in vivo [1]: 5.25 ± 0.62 h
- total protein half-life in vivo [2]: 5.39 ± 0.29 h
- total protein half-life in vivo [3]: 5.7 ± 1.1 h
- total protein half-life in vivo [4]: 5.49 ± 0.38 h
- total protein half-life in vivo [5]: 5.37 ± 0.28 h
- total protein half-life in vivo [6]: 2.92 ± 0.065 h
- total protein half-life in vivo [7]: 6.47 ± 0.27 h
- total protein half-life in vivo [8]: 11.3 ± 0.12 h
- total protein half-life in vivo [9]: 5.15 ± 0.4 h
- total protein half-life in vivo [10]: 9.41 ± 0.68 h
- total protein half-life in vivo [11]: 5.31 ± 0.06 h
- total protein half-life in vivo [12]: 11.8 ± 0.37 h

Sequence: MSRRAGTPTAKKVTQLVNVEEHVEGFRQVREAHRRELIDDYVELISDLIREVGEARQVDMAARLGVSQPTVAKMLKRLATMGLIEMIPWRGVFLTAEGEKLAQESRERHQIVENFLLVLGVSPEIARRDAEGMEHHVSEETLDAFRLFTQKHGAK [P0A9F1]
- total protein half-life in vivo [1]: 5.72 ± 0.35 h
- total protein half-life in vivo [2]: 5.64 ± 0.32 h
- total protein half-life in vivo [3]: 4.73 ± 0.12 h
- total protein half-life in vivo [4]: 6 ± 0.3 h
- total protein half-life in vivo [5]: 5.06 ± 0.61 h
- total protein half-life in vivo [6]: 3 ± 0.046 h
- total protein half-life in vivo [7]: 5.03 ± 0.24 h
- total protein half-life in vivo [8]: 12 ± 5.5 h
- total protein half-life in vivo [9]: 4.66 ± 0.23 h
- total protein half-life in vivo [10]: 9.78 ± 2.5 h
- total protein half-life in vivo [11]: 3.96 ± 0.21 h
- total protein half-life in vivo [12]: 8.06 ± 0.26 h

Sequence: MKKVAIVGLGWLGMPLAMSLSARGWQVTGSKTTQDGVEAARMSGIDSYLLRMEPELVCDSDDLDALMDADALVITLPARRSGPGDEFYLQAVQELVDSALAHRIPRIIFTSSTSVYGDAQGTVKETTPRNPVTNSGRVLEELEDWLHNLPGTSVDILRLAGLVGPGRHPGRFFAGKTAPDGEHGVNLVHLEDVIGAITLLLQAPKGGHIYNICAPAHPARNVFYPQMARLLGLEPPQFRNSLDSGKGKIIDGSRICNELGFEYQYPDPLVMPLE [P0AD12]
- total protein half-life in vivo [1]: 4.79 ± 0.29 h
- total protein half-life in vivo [2]: 4.52 ± 0.45 h
- total protein half-life in vivo [3]: 4.63 ± 0.4 h
- total protein half-life in vivo [4]: 5.07 ± 0.57 h
- total protein half-life in vivo [5]: 4.5 ± 0.096 h
- total protein half-life in vivo [6]: 3.06 ± 0.16 h
- total protein half-life in vivo [7]: 5.019 ± 0.0077 h
- total protein half-life in vivo [8]: 8.76 ± 1.2 h
- total protein half-life in vivo [9]: 4.35 ± 0.44 h
- total protein half-life in vivo [10]: 7.41 ± 0.52 h
- total protein half-life in vivo [11]: 5.61 ± 0.32 h
- total protein half-life in vivo [12]: 11.1 ± 0.28 h

Sequence: MNKYWLSGIIFLAYGLASPAFSSETATLAINGRISPPTCSMAMVNGQPQQHCGQLTYNVDTRHLFSSPVKGVTTEVVVAGSDSKRRIVLNRYD
- total protein half-life in vivo [1]: 1.53 h
- total protein half-life in vivo [5]: 0.626 ± 0.25 h
- total protein half-life in vivo [7]: 0.465 h

Sequence: MRQKETTATTRFSLLPGSITRFFLLLIIVLLVTMGVMVQSAVNAWLKDKSYQIVDITHAIQKRVDNWRYVTWQIYDNIAATTSPSSGEGLQETRLKQDVYYLEKPRRKTEALIFGSHDNSTLEMTQRMSTYLDTLWGAENVPWSMYYLNGQDNSLVLISTLPLKDLTSGFKESTVSDIVDSRRAEMLQQANALDERESFSNMRRLAWQNGHYFTLRTTFNQPGHLATVVAFDLPINDLIPPGMPLDSFRLEPDATATGNNDNEKEGTDSVSIHFNSTKIEISSALNSTDMRLVWQVPYGTLLLDTLQNILLPLLLNIGLLALALFGYTTFRHFSSRSTENVPSTAVNNELRILRAINEEIVSLLPLGLLVHDQESNRTVISNKIADHLLPHLNLQNITTMAEQHQGIIQATINNELYEIRMFRSQVAPRTQIFIIRDQDREVLVNKKLKQAQRLYEKNQQGRMIFMKNIGDALKEPAQSLAESAAKLNAPESKQLANQADVLVRLVDEIQLANMLADDSWKSETVLFSVQDLIDEVVPSVLPAIKRKGLQLLINNHLKAHDMRRGDRDALRRILLLLMQYAVTSTQLGKITLEVDQDESSEDRLTFRILDTGEGVSIHEMDNLHFPFINQTQNDRYGKADPLAFWLSDQLARKLGGHLNIKTRDGLGTRYSVHIKMLAADPEVEEEEERLLDDVCVMVDVTSAEIRNIVTRQLENWGATCITPDERLISQDYDIFLTDNPSNLTASGLLLSDDESGVREIGPGQLCVNFNMSNAMQEAVLQLIEVQLAQEEVTESPLGGDENAQLHASGYYALFVDTVPDDVKRLYTEAATSDFAALAQTAHRLKGVFAMLNLVPGKQLCETLEHLIREKDVPGIEKYISDIDSYVKSLL
- total protein half-life in vivo [1]: 6.226 ± 0.058 h
- total protein half-life in vivo [3]: 6.72 ± 0.27 h
- total protein half-life in vivo [4]: 6.86 ± 0.49 h
- total protein half-life in vivo [5]: 6.32 ± 0.7 h
- total protein half-life in vivo [6]: 3.25 ± 0.077 h
- total protein half-life in vivo [7]: 6.3 ± 0.57 h
- total protein half-life in vivo [8]: 11.13 ± 0.09 h
- total protein half-life in vivo [9]: 6.21 ± 0.15 h
- total protein half-life in vivo [10]: 12.6 ± 0.92 h
- total protein half-life in vivo [11]: 7 ± 0.88 h
- total protein half-life in vivo [12]: 12.9 ± 0.27 h

Sequence: MYDFVIIGGGIIGMSTAMQLIDVYPDARIALLEKESAPACHQTGHNSGVIHAGVYYTPGSLKAQFCLAGNRATKAFCDQNGIRYDNCGKMLVATSDLEMERMRALWERTAANGIEREWLNADELREREPNITGLGGIFVPSSGIVSYRDVTAAMAKIFQSRGGEIIYNAEVSGLNEHKNGVVIRTRQGGEYEASTLISCSGLMADRLVKMLGLEPGFIICPFRGEYFRLAPEHNQIVNHLIYPIPDPAMPFLGVHLTRMIDGSVTVGPNAVLAFKREGYRKRDFSFSDTLEILGSSGIRRVLQNHLRSGLGEMKNSLCKSGYLRLVQKYCPRLSLSDLQPWPAGVRAQAVSPDGKLIDDFLFVTTPRTIHTCNAPSPAATSAIPIGAHIVSKVQTLLASQSNPGRTLRAARSVDALHAAFNQ
- total protein half-life in vivo [1]: 5.44 ± 0.2 h
- total protein half-life in vivo [2]: 6.32 ± 1.6 h
- total protein half-life in vivo [3]: 5.3 ± 0.37 h
- total protein half-life in vivo [4]: 4.94 ± 0.065 h
- total protein half-life in vivo [5]: 4.58 ± 0.47 h
- total protein half-life in vivo [6]: 2.7 ± 0.3 h
- total protein half-life in vivo [7]: 5.48 ± 0.23 h
- total protein half-life in vivo [8]: 9.35 ± 0.39 h
- total protein half-life in vivo [9]: 5.4 ± 0.44 h
- total protein half-life in vivo [10]: 9.37 ± 0.29 h
- total protein half-life in vivo [11]: 4.51 ± 0.93 h
- total protein half-life in vivo [12]: 10.8 ± 0.21 h
